The target in assay [1] is T1, P63 (huANGTPL7-GGPGG_sub-his) (human, UniProt O43827 27-346).
T1 construct: also called full length human ANGPTL7 monomeric variant L59 GGPGG; not shown: C-terminal short linker and His tag
T1 sequence: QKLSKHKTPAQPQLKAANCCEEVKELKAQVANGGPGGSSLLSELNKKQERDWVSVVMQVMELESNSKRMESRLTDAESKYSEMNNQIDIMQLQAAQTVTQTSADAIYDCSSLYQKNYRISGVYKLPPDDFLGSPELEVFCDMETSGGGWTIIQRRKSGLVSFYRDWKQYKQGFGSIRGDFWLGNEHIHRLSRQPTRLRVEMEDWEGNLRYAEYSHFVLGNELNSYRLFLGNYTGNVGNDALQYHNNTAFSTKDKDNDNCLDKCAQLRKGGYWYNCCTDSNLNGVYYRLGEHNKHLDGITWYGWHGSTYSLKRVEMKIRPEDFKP
Briefly: BLI Octet HTX; IgG on AHC sensor; P63 at 100 nM. As to the method: Experiments were also conducted to determine the reactivity and dissociation constants (KD) of anti-ANGPTL7 antibodies with the human ANGPTL7 GGPGG_sub-his protein. Binding experiments were performed on Octet HTX (ForteBo) in 1×PBS, pH 7.4, 0.1 mg/mi BSA, 0.05% Sodium Azide, and 0.02% Tween 20. Antibodies at a concentration of 50 nM were loaded on pre-hydrated AHC biosensors for 5 min. The loaded sensors were dipped into monovalent P63 (huANGTPL7-GGPGG_sub-his) at a concentration of 100 nM for 5 min of association, followed by 10 min of dissociation.
For orientation: Biolayer interferometry detects binding as a change in optical thickness at a sensor tip.

The target of assay [2] is T2, P60 (huANGPTL7-Fibrinogen-his) (human, UniProt O43827 129-343).
T2 construct: also called human ANGPTL7 fibrinogen domain; not shown: C-terminal short linker and His tag
T2 sequence: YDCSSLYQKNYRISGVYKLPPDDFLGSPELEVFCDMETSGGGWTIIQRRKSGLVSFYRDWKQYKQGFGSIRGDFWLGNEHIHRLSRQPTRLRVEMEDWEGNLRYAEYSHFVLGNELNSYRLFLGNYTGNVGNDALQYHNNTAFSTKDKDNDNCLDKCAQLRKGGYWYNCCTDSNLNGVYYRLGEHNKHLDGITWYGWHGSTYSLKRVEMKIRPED
Briefly: BLI Octet HTX; IgG on AHC sensor; P60 at 200 nM. As to the method:
ANGPTL7 Antibody Kinetics. Experiments were conducted to determine the reactivity and dissociation constants (KD) of anti-ANGPTL7 antibodies with the human fibrinogen domain of the ANGPTL7 protein. Binding experiments were performed on Octet HTX (ForteBio) in 1×PBS, pH 7.4, 0.1 mg/ml BSA, 0.05% Sodium Azide, and 0.02 Tween 20. Antibodies at a concentration of 50 nM were loaded on pre-hydrated AHC biosensors for 5 min. The loaded sensors were dipped into monovalent P60 (huANGPTL7-Fibrinogen-his) at a concentration of 200 nM for 5 min association, followed by 10 min dissociation. […] Responses (nm) at the end of association were also determined (Table 2).

Assay [3] deals with T3, Pext-01 (huANGTPL7-FLAG multimer) (human, UniProt O43827 27-346).
T3 construct: also called PExt-1; human wild type ANGPTL7 multimer; not shown: FLAG tag
T3 sequence: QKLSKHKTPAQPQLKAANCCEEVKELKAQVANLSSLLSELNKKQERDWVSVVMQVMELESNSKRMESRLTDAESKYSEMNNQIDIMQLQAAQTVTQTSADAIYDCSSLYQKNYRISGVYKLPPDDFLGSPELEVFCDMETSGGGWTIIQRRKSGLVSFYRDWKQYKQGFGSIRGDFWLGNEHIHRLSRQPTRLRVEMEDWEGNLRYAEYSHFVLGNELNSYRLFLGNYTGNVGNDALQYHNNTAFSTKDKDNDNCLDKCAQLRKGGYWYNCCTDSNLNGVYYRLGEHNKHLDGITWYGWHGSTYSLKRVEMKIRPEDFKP
In words: BLI Octet HTX; IgG on AHC sensor; Pext-01 at 100 nM; 1:1 fit; apparent KD. The method, boiled down:
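Antibodies at 50 nM were captured on AHC biosensors for 5 min in PBS pH 7.4 with 0.1 mg/ml BSA, 0.05% sodium azide and 0.02% Tween 20.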

Assay [4] deals with T3, Pext-01 (huANGTPL7-FLAG multimer). Briefly: BLI Octet HTX; IgG on AHC sensor; Pext-01 at 100 nM. How it is done: Experiments were also conducted to determine the reactivity and dissociation constants (KD) of anti-ANGPTL7 antibodies with the human ANGPTL7 multimer protein. Binding experiments were performed on Octet HTX (ForteBio) in 1×PBS, pH 7.4, 0.1 mg/ml BSA, 0.05% Sodium Azide, and 0.02% Tween 20. Antibodies at a concentration of 50 nM were loaded on pre-hydrated AHC biosensors for 5 mi. The loaded sensors were dipped into Pext-01 (huANGTPL7-FLAG) at a concentration of 100 nM for 5 min of association, followed by 10 min of dissociation. […] Responses (nm) at the end of association were also determined (Table 7).

For assay [5], the target named is T2, P60 (huANGPTL7-Fibrinogen-his). In words: BLI Octet HTX; IgG on AHC sensor; P60 at 200 nM; 1:1 fit. The method in brief: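 Anti-ANGPTL7 IgG at 50 nM loaded 5 min on AHC biosensors, then dipped in monovalent P60 at 200 nM: 5 min association, 10 min dissociation.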
The target in a further assay is T4, P66 (rabbit ANGPTL7-his) (rabbit, UniProt G1T4P1 27-344).
T4 construct: mature; also called rabbit ANGPTL7 protein
T4 sequence: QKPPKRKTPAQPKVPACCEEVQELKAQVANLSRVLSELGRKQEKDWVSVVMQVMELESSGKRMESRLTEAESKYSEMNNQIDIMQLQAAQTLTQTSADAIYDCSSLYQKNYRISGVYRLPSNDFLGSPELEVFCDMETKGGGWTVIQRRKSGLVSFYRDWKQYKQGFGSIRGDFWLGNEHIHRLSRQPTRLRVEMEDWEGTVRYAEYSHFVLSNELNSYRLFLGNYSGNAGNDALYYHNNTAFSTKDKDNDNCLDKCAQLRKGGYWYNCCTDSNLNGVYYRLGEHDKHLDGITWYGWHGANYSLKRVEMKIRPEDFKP
In words: BLI Octet HTX; IgG on AHC sensor; P66 at 200 nM; 1:1 fit. The method, boiled down:
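Biolayer interferometry in PBS pH 7.4 with 0.1 mg/ml BSA, 0.05% sodium azide, 0.02% Tween 20; antibodies at 50 nM loaded on AHC sensors for 5 min. Monovalent analyte at 200 nM: 5 min association, 10 min dissociation; end-of-association response (nm) recorded, kinetics by 1:1 fit.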

As usually defined, the Kd is the equilibrium constant for the complex coming apart. A higher Kd goes with lower affinity.

B1: ATX-P-443 (antibody, human IgG1, kappa, N297A, V domains shown)
VH: QVQLVQSGAEVKKPGASVKVSCKASGYTFTSYGISWVRQAPGQGLEWMGWIIAYNGNTNYAQKLQGRITMTTNTSTNTAYMELRSLRSDDTAVYYCGRDTGFSFDYWGQGTLVTVSS
VL: not shown
notes: Full chains (VH + hIgG1-Agly-Fc)
As for B1, the values for the binding result in assay [1], in assay [2] and in assay [4] were “no binding (tested: 100 nM)”, “no binding (tested: 200 nM)” and “no binding (tested: 100 nM)”, respectively. Further, the values for the Response (in assay [3]; in assay [5]; with P66 (rabbit ANGPTL7-his)) were 0.03 nm, 0.01 nm and 0.03 nm, respectively.

B2: ATX-P-428 (antibody, human IgG1, kappa, N297A, V domains shown)
VH: QVQLVQSGAEVKKPGASVKVSCKASGYTFSSYGISWVRQAPGQGLEWMGWISAYNGNTNYAQNLRGRVAMTTDTSTTTAYMELRSLRSDDTAVYYCARVSLVWFGELPRGFDYWGQGTLVTVSS
VL: not shown
notes: as for B1
As for B2, the binding result in assay [1] was “no binding (tested: 100 nM)”; in assay [2] it was “no binding (tested: 200 nM)”; in assay [4], “no binding (tested: 100 nM)”. Further, the Response in assay [3] worked out at 0.05 nm; in assay [5], 0.02 nm; with P66 (rabbit ANGPTL7-his), 0.04 nm.

B3: ATX-P-449 (antibody, human IgG1, kappa, N297A, V domains shown)
VH: QVQLVESGGGVVQPGRSLRLSCAASGFAFSSYGMHWVRQAPGKGLEWVAVISYYGSNKYYADSVKGRFTISRDNSKNTLYLQMNSLRAEDTAVYHCARGITMDVWGKGTTVTVSS
VL: EIVLTQSPATLSLSPGERATLSCRASQSVSSYLAWYQQKPGQAPRLLIYDASNRATGIPARFSGSGSGTDFTLTISSLEPEDFAVYYCQQRSNWPLTFGGGTKVEIKR
notes: as for B1
As to B3, the binding result is listed as “no binding (tested: 100 nM)” in assay [1] and “no binding (tested: 200 nM)” in assay [2]. Moreover, the Response in assay [3] came to 0.65 nm; in assay [5] it was 0.08 nm; with P66 (rabbit ANGPTL7-his) it was 0.74 nm. Further, binding with P66 (rabbit ANGPTL7-his) was put at a Kd of 0.626 nM.

For the origin of these results see patent publication US20250296996A1 (BROADWING BIO, published 2025).
